Test results from paper PMC7755903 (Nature Communications, 2020).
Where “and” joins values, the source holds several entries; their conditions need not be identical. Identical values can stand only once.

Legend:
[1] = target: T1, human βI-tryptase monomer (Homo sapiens, UniProt Q15661); test: SPR; Biacore T200; E104 IgG variants captured on immobilised mouse anti-human IgG (Fc) antibody on CM5 chips; threefold dilutions of human βI-tryptase monomer injected at 30 µL/min, 25 °C; 1:1 Langmuir model; n = 2; conditions: both partners purified
T1 construct: mature human βI-tryptase, Ile31-Pro275 of Uniprot Q15661 (Ile16-Pro246 in chymotrypsinogen numbering); The monomer used in SPR and HDX-MS; also called monomeric βI-tryptase; monomeric β-tryptase
T1 sequence (Q15661 31-275): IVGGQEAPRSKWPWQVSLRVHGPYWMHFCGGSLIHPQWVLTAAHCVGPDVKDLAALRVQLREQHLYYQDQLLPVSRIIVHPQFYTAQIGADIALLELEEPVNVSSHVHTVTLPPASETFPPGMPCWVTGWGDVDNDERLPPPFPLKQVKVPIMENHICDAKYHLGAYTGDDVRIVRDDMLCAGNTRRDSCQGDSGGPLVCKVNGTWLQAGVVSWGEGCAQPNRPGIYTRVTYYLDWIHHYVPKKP

[2] = target: T2, human βI-tryptase monomer (Homo sapiens, UniProt Q15661); test: SPR; Biacore T200; antibody captured on a CM5 chip by immobilised mouse anti-human IgG (Fc); threefold dilutions of βI-tryptase monomer injected at 30 µL/min, 25 °C, 3-min association, 10-min dissociation; 1:1 Langmuir fit; n = 2; conditions: both partners purified
T2 construct: mature wild-type human βI-tryptase, Uniprot Q15661, Ile31-Pro275 (Ile16-Pro246 in chymotrypsinogen numbering); The SPR methods say only 'human βI-tryptase monomer'; The methods describe the monomeric form as the zymogen, which still carries the N-terminal His6 tag and enterokinase site before Ile16; also called monomeric βI-tryptase; β-tryptase; source: Trichoplusia ni cells (baculovirus, …)
T2 sequence (Q15661 31-275): as above

Binder | Kd [1] | Kd [2]
humanized E104.v2 IgG4 (antibody, V domains shown, humanized E104.v2 VH: as the VH of Sm2 (E104.v1, PDB 6VVU heavy chain) with V71R and F78V (Kabat numbering); human IgG4 heavy chain constant region, the CH1 domain up to the upper hinge; upper hinge of human IgG4; human IgG4 heavy chain constant region after the upper hinge (core and lower hinge, CH2, CH3); IgG4 isotype version of E104.v2; copies: 2 + 2) VH: EVQLVESGPGLVKPSETLSLTCTVSRFSLIGYAITWIRQPPGKGLEWIGGISSAATTFYSSWAKSRVTISRDTSKNQVSLKLSSVTAADTAVYYCARDPRGYGAALDRLDLWGQGTLVTVSS VL: DIQMTQSPSSLSASVGDRVTITCQSIKSVYNNRLGWYQQKPGKAPKLLIYETSILTSGVPSRFSGSGSGTDFTLTISSLQPEDFATYYCAGGFDRSGDTTFGQGTKVEIK | – | 0.745 nM and 0.689 nM
E104.v2 IgG1 hinge variant G1 + GGS (antibody, V domains shown, variable domain of the heavy chain as in m6 (PDB 6VVU, Fab heavy chain) with V71R and F78V (Kabat numbering); human IgG1 heavy chain constant region before the upper hinge (CH1); upper hinge of the variant; human IgG1 heavy chain constant region after the upper hinge (core hinge from C226, CH2, CH3); as the light chain of m6 (PDB 6VVU, Fab light chain); IgG1 with an extended upper hinge; source: …) VH: EVQLVESGPGLVKPSETLSLTCTVSRFSLIGYAITWIRQPPGKGLEWIGGISSAATTFYSSWAKSRVTISRDTSKNQVSLKLSSVTAADTAVYYCARDPRGYGAALDRLDLWGQGTLVTVSS VL: DIQMTQSPSSLSASVGDRVTITCQSIKSVYNNRLGWYQQKPGKAPKLLIYETSILTSGVPSRFSGSGSGTDFTLTISSLQPEDFATYYCAGGFDRSGDTTFGQGTKVEIK | 0.5 ± 0.05 nM | –
E104.v2 IgG1 hinge variant G1-KTH (antibody, V domains shown, variable domain of the heavy chain as in m6 (PDB 6VVU, Fab heavy chain) with V71R and F78V (Kabat numbering); human IgG1 heavy chain constant region before the upper hinge (CH1); upper hinge of the variant; human IgG1 heavy chain constant region after the upper hinge (core hinge from C226, CH2, CH3); as the light chain of m6 (PDB 6VVU, Fab light chain); IgG1 with a shortened upper hinge; source: …) VH: EVQLVESGPGLVKPSETLSLTCTVSRFSLIGYAITWIRQPPGKGLEWIGGISSAATTFYSSWAKSRVTISRDTSKNQVSLKLSSVTAADTAVYYCARDPRGYGAALDRLDLWGQGTLVTVSS VL: DIQMTQSPSSLSASVGDRVTITCQSIKSVYNNRLGWYQQKPGKAPKLLIYETSILTSGVPSRFSGSGSGTDFTLTISSLQPEDFATYYCAGGFDRSGDTTFGQGTKVEIK | 0.5 ± 0.09 nM | –
humanized E104.v2 IgG4 (antibody, V domains shown, variable domain of the heavy chain as in m6 (PDB 6VVU, Fab heavy chain) with V71R and F78V (Kabat numbering); human IgG4 heavy chain constant region; upper hinge printed as ESKYGPP; as the light chain of m6 (PDB 6VVU, Fab light chain); IgG4 isotype version of E104.v2; source: 293 cells, transient transfection, purified (MabSelect SuRe, SEC); copies: 2 + 2) VH: EVQLVESGPGLVKPSETLSLTCTVSRFSLIGYAITWIRQPPGKGLEWIGGISSAATTFYSSWAKSRVTISRDTSKNQVSLKLSSVTAADTAVYYCARDPRGYGAALDRLDLWGQGTLVTVSS VL: DIQMTQSPSSLSASVGDRVTITCQSIKSVYNNRLGWYQQKPGKAPKLLIYETSILTSGVPSRFSGSGSGTDFTLTISSLQPEDFATYYCAGGFDRSGDTTFGQGTKVEIK | 0.7 ± 0.04 nM | –
humanized E104.v2 IgG1 (antibody, V domains shown, variable domain of the heavy chain as in m6 (PDB 6VVU, Fab heavy chain) with V71R and F78V (Kabat numbering); human IgG1 heavy chain constant region; as the light chain of m6 (PDB 6VVU, Fab light chain); IgG1; also called IgG1.v2; WT IgG1 hinge; source: 293 cells, transient transfection, purified (MabSelect SuRe, SEC); copies: 2 + 2) VH: EVQLVESGPGLVKPSETLSLTCTVSRFSLIGYAITWIRQPPGKGLEWIGGISSAATTFYSSWAKSRVTISRDTSKNQVSLKLSSVTAADTAVYYCARDPRGYGAALDRLDLWGQGTLVTVSS VL: DIQMTQSPSSLSASVGDRVTITCQSIKSVYNNRLGWYQQKPGKAPKLLIYETSILTSGVPSRFSGSGSGTDFTLTISSLQPEDFATYYCAGGFDRSGDTTFGQGTKVEIK | 0.6 ± 0.01 nM | –

Further lines, results first:

Kd [1] | Kd [2] | Binder
0.5 ± 0.02 nM | – | humanized E104.v1 IgG1 (antibody, V domains shown, variable domain of the heavy chain as in m6 (PDB 6VVU, Fab heavy chain); human IgG1 heavy chain constant region; as the light chain of m6 (PDB 6VVU, Fab light chain); IgG1; also called IgG1.v1; source: 293 cells, transient transfection, purified (MabSelect SuRe, SEC); copies: 2 + 2) VH: EVQLVESGPGLVKPSETLSLTCTVSRFSLIGYAITWIRQPPGKGLEWIGGISSAATTFYSSWAKSRVTISVDTSKNQFSLKLSSVTAADTAVYYCARDPRGYGAALDRLDLWGQGTLVTVSS VL: DIQMTQSPSSLSASVGDRVTITCQSIKSVYNNRLGWYQQKPGKAPKLLIYETSILTSGVPSRFSGSGSGTDFTLTISSLQPEDFATYYCAGGFDRSGDTTFGQGTKVEIK
– | 0.435 nM and 0.502 nM | E104.v2 IgG1 hinge variant G1 + GGS (antibody, V domains shown, humanized E104.v2 VH: as the VH of Sm2 (E104.v1, PDB 6VVU heavy chain) with V71R and F78V (Kabat numbering); human IgG1 heavy chain constant region, the CH1 domain up to the upper hinge; human IgG1 heavy chain constant region after the upper hinge (core and lower hinge, CH2, CH3); IgG1 with extended upper hinge; copies: 2 + 2) VH: EVQLVESGPGLVKPSETLSLTCTVSRFSLIGYAITWIRQPPGKGLEWIGGISSAATTFYSSWAKSRVTISRDTSKNQVSLKLSSVTAADTAVYYCARDPRGYGAALDRLDLWGQGTLVTVSS VL: DIQMTQSPSSLSASVGDRVTITCQSIKSVYNNRLGWYQQKPGKAPKLLIYETSILTSGVPSRFSGSGSGTDFTLTISSLQPEDFATYYCAGGFDRSGDTTFGQGTKVEIK
0.4 ± 0.03 nM | – | E104.v2 IgG1 hinge variant G1.CC (antibody, V domains shown, variable domain of the heavy chain as in m6 (PDB 6VVU, Fab heavy chain) with V71R and F78V (Kabat numbering); human IgG1 heavy chain constant region before the upper hinge (CH1); upper hinge of the variant; human IgG1 heavy chain constant region after the upper hinge (core hinge from C226, CH2, CH3); as the light chain of m6 (PDB 6VVU, Fab light chain); IgG1 with two added cysteines in the upper …) VH: EVQLVESGPGLVKPSETLSLTCTVSRFSLIGYAITWIRQPPGKGLEWIGGISSAATTFYSSWAKSRVTISRDTSKNQVSLKLSSVTAADTAVYYCARDPRGYGAALDRLDLWGQGTLVTVSS VL: DIQMTQSPSSLSASVGDRVTITCQSIKSVYNNRLGWYQQKPGKAPKLLIYETSILTSGVPSRFSGSGSGTDFTLTISSLQPEDFATYYCAGGFDRSGDTTFGQGTKVEIK
0.5 ± 0.01 nM | – | E104.v2 IgG1 hinge variant G1 + G (antibody, V domains shown, variable domain of the heavy chain as in m6 (PDB 6VVU, Fab heavy chain) with V71R and F78V (Kabat numbering); human IgG1 heavy chain constant region before the upper hinge (CH1); upper hinge of the variant; human IgG1 heavy chain constant region after the upper hinge (core hinge from C226, CH2, CH3); as the light chain of m6 (PDB 6VVU, Fab light chain); IgG1 with an extended upper hinge; source: …) VH: EVQLVESGPGLVKPSETLSLTCTVSRFSLIGYAITWIRQPPGKGLEWIGGISSAATTFYSSWAKSRVTISRDTSKNQVSLKLSSVTAADTAVYYCARDPRGYGAALDRLDLWGQGTLVTVSS VL: DIQMTQSPSSLSASVGDRVTITCQSIKSVYNNRLGWYQQKPGKAPKLLIYETSILTSGVPSRFSGSGSGTDFTLTISSLQPEDFATYYCAGGFDRSGDTTFGQGTKVEIK
0.6 ± 0.1 nM | – | E104.v2 IgG2 (antibody, V domains shown, variable domain of the heavy chain as in m6 (PDB 6VVU, Fab heavy chain) with V71R and F78V (Kabat numbering); human IgG2 heavy chain constant region; upper hinge printed as ERKCCVE; as the light chain of m6 (PDB 6VVU, Fab light chain); IgG2 isotype version of E104.v2; source: 293 cells, transient transfection, purified (MabSelect SuRe, SEC); copies: 2 + 2) VH: EVQLVESGPGLVKPSETLSLTCTVSRFSLIGYAITWIRQPPGKGLEWIGGISSAATTFYSSWAKSRVTISRDTSKNQVSLKLSSVTAADTAVYYCARDPRGYGAALDRLDLWGQGTLVTVSS VL: DIQMTQSPSSLSASVGDRVTITCQSIKSVYNNRLGWYQQKPGKAPKLLIYETSILTSGVPSRFSGSGSGTDFTLTISSLQPEDFATYYCAGGFDRSGDTTFGQGTKVEIK
